# Source: PMC10502760, “MdNAC104 positively regulates apple cold tolerance via CBF‐dependent and CBF‐independent pathways”
# T1: MdNAC104-His (Malus domestica, UniProt D9ZJ88 1-204)
# T1 sequence: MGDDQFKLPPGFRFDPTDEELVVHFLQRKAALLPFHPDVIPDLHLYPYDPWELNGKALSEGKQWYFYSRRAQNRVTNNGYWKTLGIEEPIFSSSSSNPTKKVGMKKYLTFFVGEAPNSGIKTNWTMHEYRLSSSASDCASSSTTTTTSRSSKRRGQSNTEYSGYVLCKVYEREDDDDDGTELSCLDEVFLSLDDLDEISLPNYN
# Molecular target: T1, MdNAC104-His
# Test: EMSA; LightShift Chemiluminescent EMSA kit (Thermo) per manufacturer; buffer, salt, pH and temperature not stated
# Settings: protein: recombinant; tags: His (pET32a); chain copies: 2; label: biotin; blunt
row,Binder,binding result
1,MdCHS-b-P2 (dsDNA) DNA 1: GATGTGGAACATGTGTGGCTATTAGGTTGGTATTCACACGAAATACGACCTACTATATAC DNA 2: GTATATAGTAGGTCGTATTTCGTGTGAATACCAACCTAATAGCCACACATGTTCCACATC,binds
2,MdCHS-b-P4 (dsDNA) DNA 1: TCCTTTTTACGAAAGTGACATTACAACGAA DNA 2: TTCGTTGTAATGTCACTTTCGTAAAAAGGA,binds
3,MdPRXR1.1-P2 (dsDNA) DNA 1: TTTGTAACTAACGGAAAACTTAATACAAAA DNA 2: TTTTGTATTAAGTTTTCCGTTAGTTACAAA,binds
4,MdFSD2-P3 (dsDNA) DNA 1: GTCATTTTGGACGAAAACTTTAATGAAAAT DNA 2: ATTTTCATTAAAGTTTTCGTCCAAAATGAC,binds
5,MdF3H-a-P5 (dsDNA) DNA 1: CAATTGAGTAATTTCGTTCTTAATTCTTTT DNA 2: AAAAGAATTAAGAACGAAATTACTCAATTG,binds
6,MdF3H-a-P2 (dsDNA) DNA 1: ACATAGATGAATACATGTCACCGCCATAAT DNA 2: ATTATGGCGGTGACATGTATTCATCTATGT,binds
7,MdF3H-a-P3 (dsDNA) DNA 1: GTTACCCCATATGACCATGTAACCGTCTGA DNA 2: TCAGACGGTTACATGGTCATATGGGGTAAC,binds
8,MdANS-b-P4 (dsDNA) DNA 1: GATTCCTATATATACGTAACTAGCTCATAG DNA 2: CTATGAGCTAGTTACGTATATATAGGAATC,binds
9,MdCBF1-P1 (dsDNA) DNA 1: CATCCCCACGAAAAGTACACAACCAACACA DNA 2: TGTGTTGGTTGTGTACTTTTCGTGGGGATG,binds
10,MdCBF3-P1 (dsDNA) DNA 1: TATATATATTCATGTGGATTGGGTGATGAG DNA 2: CTCATCACCCAATCCACATGAATATATATA,binds
11,MdF3H-a-P7 (dsDNA) DNA 1: CAAAAATATTTTCCGTAATGAAGTGTCTTG DNA 2: CAAGACACTTCATTACGGAAAATATTTTTG,binds
12,MdF3H-a-P1 (dsDNA) DNA 1: CAAACACAAAACGTATTTCGTTTGAGCCAA DNA 2: TTGGCTCAAACGAAATACGTTTTGTGTTTG,binds
13,MdCBF1-P1-mut (dsDNA) DNA 1: CATCCCCAAAAAAAGTACACAACCAACACA DNA 2: TGTGTTGGTTGTGTACTTTTTTTGGGGATG,no binding
14,MdCHI-P1 (dsDNA) DNA 1: CTTTTGAGTTGGTTTCGTTGAAGACTTTTT DNA 2: AAAAAGTCTTCAACGAAACCAACTCAAAAG,binds
15,MdANS-b-P1 (dsDNA) DNA 1: GGTGAGATGTCACATGTACAACAGCCACAT DNA 2: ATGTGGCTGTTGTACATGTGACATCTCACC,binds
16,MdCBF3-P1-mut (dsDNA) DNA 1: TATATATATTAAAAAAGATTGGGTGATGAG DNA 2: CTCATCACCCAATCTTTTTTAATATATATA,no binding
